Measured values taken from paper PMC10954479 (Nucleic Acids Research, 2024).
Changes are numbered by the printed parent chain. Names may count otherwise.

T1: HDAC4GRD (residues 62–192) F93D mutant (human, UniProt P56524 62-192, F93D)
T1 sequence: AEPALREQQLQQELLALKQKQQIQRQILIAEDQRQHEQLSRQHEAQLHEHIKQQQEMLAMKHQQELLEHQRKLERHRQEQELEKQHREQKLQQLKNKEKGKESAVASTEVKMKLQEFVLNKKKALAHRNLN

B1: Site-2 DNA (dsDNA)
DNA 1: CTAAGCAAATGAGATGAATATGCAGGGCACCATGCTAAAAATAAAATGGTTTCATGGTGCTAGTGAGGAAGGAA
DNA 2: TTCCTTCCTCACTAGCACCATGAAACCATTTTATTTTTAGCATGGTGCCCTGCATATTCATCTCATTTGCTTAG
B2: human HDAC4 glutamine-rich domain (HDAC4GRD, residues 62–192), wild type (domain or fragment)
chain: T1 sequence with D32F
B3: HDAC4GRD (residues 62–192) H109D mutant (domain or fragment)
chain: T1 sequence with D32F, H48D
B4: human MEF2A MADS-box/MEF2s domain (residues 1–95) (domain or fragment)
chain: MGRKKIQITRIMDERNRQVTFTKRKFGLMKKAYELSVLCDCEIALIIFNSSNKLFQYASTDMDKVLLKYTEYNEPHESRTNSDIVEALNKKEHRG
B5: Site-1 DNA (dsDNA)
DNA 1: GGGAAAGTTTCTATTATTAGCAGAGATA
DNA 2: TATCTCTGCTAATAATAGAAACTTTCCC
B6: 28 bp EMSA DNA (dsDNA)
DNA 1: GGGAAAGTTTCTATTATTAGCAGAGATA
DNA 2: TATCTCTGCTAATAATAGAAACTTTCCC
B7: 15 bp crystallization DNA (dsDNA)
DNA 1: AAACTATTTATAAGA
DNA 2: TCTTATAAATAGTTT

How the values were obtained:
[1] = target: T2, MEF2A1-95;HDAC4GRD H109D (Homo sapiens;Homo sapiens, UniProt Q02078;P56524 1-95;62-192, |H109D); experiment: pull-down
[2] = target: T3, MEF2A1-95;HDAC4GRD WT (Homo sapiens;Homo sapiens, UniProt Q02078;P56524 1-95;62-192, |); experiment: pull-down
[3] = target: the molecule itself; experiment: crystal structure
[4] = target: the molecule itself; experiment: SEC
[5] = target: B3; experiment: native gel or EMSA
[6] = target: T1, HDAC4GRD (residues 62–192) F93D mutant; experiment: native gel or EMSA
[7] = target: T3, MEF2A1-95;HDAC4GRD WT; experiment: pull-down; remark: listed apart in the source
[8] = target: T3, MEF2A1-95;HDAC4GRD WT; experiment: EMSA
[9] = target: T2, MEF2A1-95;HDAC4GRD H109D; experiment: EMSA
[10] = target: MEF2A1-95;HDAC4GRD F93D (Homo sapiens;Homo sapiens, UniProt Q02078;P56524 1-95;62-192, |F93D); experiment: EMSA
[11] = target: T3, MEF2A1-95;HDAC4GRD WT; experiment: X-ray crystallography

B1: binds [1]; binds [2].

In the case of B2, the “stoichiometry N” value [3] is reported as 2.

B3: binds [4].

B4 was tested, and the binding result [5] was “binds”, the binding result [6] was “binds” and the “stoichiometry N” value [3] was 2.

B5: binds [7].

B6: binds [8]; binds [9]; binds [10].

B7: binds [11].
